Measurements: the supplement of paper PMC9112550, “Optimization of the antimicrobial peptide Bac7 by deep mutational scanning” (BMC Biology, 2022)

tested on: Escherichia coli TOP10; experiment: shrunken log2 fold change of peptide-encoding DNA abundance (4.5 h post-induction vs induction); higher = less antimicrobial activity (less host growth inhibition); conditions: time post-induction: 4.5 h; library: site-saturation at positions 5, 18, 19, 20
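Further: peptides expressed intracellularly from a pBAD plasmid library in pooled LB shake-flask culture, induced with 0.3% L-arabinose, DNA abundance read by NGS, three biological replicates, DESeq2 with apeglm shrinkage.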

| Sequence | shrunken log2 fold change |
| --- | --- |
| RRIRARPPRLPRPRPRPIFTPRP | 0.165 |
| RRIRTRPPRLPRPRPRPHYCPRP | -0.418 |
| RRIRCRPPRLPRPRPRPAISPRP | 0.0324 |
| RRIRQRPPRLPRPRPRPWFQPRP | -0.0867 |
| RRIRQRPPRLPRPRPRPALLPRP | -0.0269 |
| RRIRCRPPRLPRPRPRPTSCPRP | -0.0641 |
| RRIRTRPPRLPRPRPRPISFPRP | -0.199 |
| RRIRGRPPRLPRPRPRPQCNPRP | 0.203 |
| RRIRYRPPRLPRPRPRPTSLPRP | -0.0466 |
| RRIRSRPPRLPRPRPRPQYHPRP | -0.9 |
| RRIRARPPRLPRPRPRPHRPPRP | -0.0433 |
| RRIRYRPPRLPRPRPRPRDIPRP | -0.0839 |
| RRIRNRPPRLPRPRPRPGDDPRP | 0.0116 |
| RRIRERPPRLPRPRPRPPKNPRP | 0.284 |
| RRIRPRPPRLPRPRPRPNDPPRP | -0.0507 |
| RRIRDRPPRLPRPRPRPCIWPRP | 0.033 |
| RRIRHRPPRLPRPRPRPNGAPRP | -0.18 |
| RRIRFRPPRLPRPRPRPQAPPRP | 0.0778 |
| RRIRARPPRLPRPRPRPQEQPRP | 0.0884 |
| RRIRARPPRLPRPRPRPRAYPRP | 0.178 |
| RRIRLRPPRLPRPRPRPLGAPRP | 0.387 |
| RRIRMRPPRLPRPRPRPTRGPRP | 1.57 |

| Sequence | shrunken log2 fold change |
| --- | --- |
| RRIRIRPPRLPRPRPRPRMNPRP | -0.593 |
| RRIRDRPPRLPRPRPRPSEEPRP | 0.277 |
| RRIRPRPPRLPRPRPRPTYRPRP | -0.236 |
| RRIRTRPPRLPRPRPRPYTCPRP | -0.0764 |
| RRIRGRPPRLPRPRPRPTNMPRP | 0.316 |
| RRIRMRPPRLPRPRPRPKRQPRP | 0.0602 |
| RRIRNRPPRLPRPRPRPLPFPRP | -0.153 |
| RRIRNRPPRLPRPRPRPQKRPRP | -0.034 |
| RRIRSRPPRLPRPRPRPHLCPRP | -0.121 |
| RRIRNRPPRLPRPRPRPACCPRP | 0.236 |
| RRIRCRPPRLPRPRPRPSDVPRP | 0.00436 |
| RRIRERPPRLPRPRPRPRHDPRP | -0.328 |
| RRIRKRPPRLPRPRPRPIMKPRP | 0.16 |
| RRIRNRPPRLPRPRPRPYMQPRP | -0.315 |
| RRIRYRPPRLPRPRPRPVEQPRP | -0.191 |
| RRIRWRPPRLPRPRPRPLPAPRP | 1.25 |
| RRIRRRPPRLPRPRPRPLKTPRP | 0.157 |
| RRIRERPPRLPRPRPRPGEGPRP | 0.028 |
| RRIRNRPPRLPRPRPRPYVMPRP | -1.01 |
| RRIRLRPPRLPRPRPRPCPNPRP | 0.0236 |
| RRIRQRPPRLPRPRPRPHTVPRP | -0.484 |
| RRIRGRPPRLPRPRPRPTCLPRP | 0.576 |

| Sequence | shrunken log2 fold change |
| --- | --- |
| RRIRYRPPRLPRPRPRPKKEPRP | -0.00181 |
| RRIRTRPPRLPRPRPRPLPFPRP | -0.518 |
| RRIRCRPPRLPRPRPRPFQIPRP | 0.00581 |
| RRIRKRPPRLPRPRPRPLNLPRP | -0.123 |
| RRIRWRPPRLPRPRPRPGYAPRP | 0.38 |
| RRIRFRPPRLPRPRPRPMEKPRP | 0.273 |
| RRIRMRPPRLPRPRPRPMEHPRP | 0.0124 |
| RRIRDRPPRLPRPRPRPYCLPRP | -0.0759 |
| RRIRTRPPRLPRPRPRPKAFPRP | -0.149 |
| RRIRKRPPRLPRPRPRPEMVPRP | 0.422 |
| RRIRGRPPRLPRPRPRPLVDPRP | 1.1 |
| RRIRMRPPRLPRPRPRPRWKPRP | 0.214 |
| RRIRPRPPRLPRPRPRPCPAPRP | -0.0349 |
| RRIRYRPPRLPRPRPRPHMWPRP | -0.621 |
| RRIRERPPRLPRPRPRPRVWPRP | 0.387 |
| RRIRPRPPRLPRPRPRPQRWPRP | 0.156 |
| RRIRTRPPRLPRPRPRPASKPRP | -0.05 |
| RRIRCRPPRLPRPRPRPQRDPRP | -0.304 |
| RRIRDRPPRLPRPRPRPSSHPRP | -0.124 |
| RRIRQRPPRLPRPRPRPQSMPRP | -0.395 |
| RRIRIRPPRLPRPRPRPFYSPRP | -0.476 |
| RRIRTRPPRLPRPRPRPDKNPRP | -0.143 |

| Sequence | shrunken log2 fold change |
| --- | --- |
| RRIRDRPPRLPRPRPRPTQIPRP | 0.114 |
| RRIRCRPPRLPRPRPRPVSSPRP | -0.0119 |
| RRIRQRPPRLPRPRPRPILNPRP | -0.098 |
| RRIRIRPPRLPRPRPRPDVSPRP | -0.121 |
| RRIRGRPPRLPRPRPRPTRGPRP | 0.808 |
| RRIRQRPPRLPRPRPRPYCYPRP | -0.198 |
| RRIRMRPPRLPRPRPRPSEEPRP | 0.0287 |
| RRIRCRPPRLPRPRPRPWEKPRP | 0.0651 |
| RRIRWRPPRLPRPRPRPKPVPRP | 0.006 |
| RRIRNRPPRLPRPRPRPLPMPRP | -0.14 |
| RRIRNRPPRLPRPRPRPYKAPRP | -0.388 |
| RRIRCRPPRLPRPRPRPMSLPRP | -0.163 |
| RRIRDRPPRLPRPRPRPWPDPRP | 0.129 |
| RRIRHRPPRLPRPRPRPDHLPRP | -0.0237 |
| RRIRSRPPRLPRPRPRPFRLPRP | -0.793 |
| RRIRMRPPRLPRPRPRPCDEPRP | 0.877 |
| RRIRPRPPRLPRPRPRPCYMPRP | -1.12 |
| RRIRNRPPRLPRPRPRPEQPPRP | 0.0618 |
| RRIRPRPPRLPRPRPRPLDTPRP | 1 |
| RRIRVRPPRLPRPRPRPDQVPRP | -0.202 |
| RRIRCRPPRLPRPRPRPNDWPRP | -0.166 |
| RRIRGRPPRLPRPRPRPQTAPRP | 0.205 |

| Sequence | shrunken log2 fold change |
| --- | --- |
| RRIRKRPPRLPRPRPRPNGIPRP | -0.029 |
| RRIRWRPPRLPRPRPRPYAIPRP | -0.347 |
| RRIRRRPPRLPRPRPRPTCAPRP | 0.502 |
| RRIRHRPPRLPRPRPRPTSSPRP | -0.0142 |
| RRIRYRPPRLPRPRPRPMYLPRP | -0.0959 |
| RRIRSRPPRLPRPRPRPAPQPRP | 0.461 |
| RRIRARPPRLPRPRPRPFDDPRP | -0.0122 |
| RRIRMRPPRLPRPRPRPSLGPRP | 0.193 |
| RRIRWRPPRLPRPRPRPSYWPRP | -0.415 |
| RRIRFRPPRLPRPRPRPEMRPRP | 0.244 |
| RRIRFRPPRLPRPRPRPQDTPRP | -0.46 |
| RRIRERPPRLPRPRPRPAWAPRP | 0.0704 |
| RRIRCRPPRLPRPRPRPHSSPRP | -0.823 |
| RRIRQRPPRLPRPRPRPTDMPRP | -0.0372 |
| RRIRPRPPRLPRPRPRPACEPRP | 0.0148 |
| RRIRERPPRLPRPRPRPHNSPRP | -0.156 |
| RRIRVRPPRLPRPRPRPWARPRP | 0.416 |
| RRIRCRPPRLPRPRPRPACCPRP | 0.306 |
| RRIRERPPRLPRPRPRPAGRPRP | 0.0837 |
| RRIRIRPPRLPRPRPRPSLTPRP | -1.12 |
| RRIRWRPPRLPRPRPRPDYAPRP | -0.0174 |
